Data set [1] relates to patients with multiple myeloma. To be noted: COLUMBA, cited from earlier work.
In data set [2] the test system is patients with RRMM. To be noted: DARA MD 1,800 mg; PAVO Part 1; median follow-up 8.3 months; cited from earlier work.
Data set [3] relates to patients with RRMM. The conditions noted are these: in vivo.
Data set [4] concerns patients with RRMM. Kind of data set: PAVO Part 1: DARA MD safety and efficacy.
In data set [5] the test system is patients with RRMM. Kind of data set: PAVO Part 3: immunogenicity (anti-daratumumab and anti-rHuPH20 antibodies). The data set is classed as in vivo, human. Here is the method: For evaluation of immunogenicity, anti-daratumumab antibodies in serum and anti-rHuPH20 antibodies in plasma were assessed pre-dose on Cycle 1 Day 1, Cycle 1 Day 15, Cycle 2 Day 22, Cycle 4 Day 1 and 4- and 8-weeks post-treatment. The presence of anti-daratumumab and/or anti-rHuPH20 antibodies was assessed for classification as neutralizing antibodies.

Consider four molecules from patent US20230136301A1, “Corticosteriod Reduction in Treatment with Anti-CD38 Antibody” (Janssen Biotech, Inc., priority 2021, published 2023).

“Also recorded” adds a separate entry of the source.

In the case of “DARA IV: daratumumab 16 mg/kg given by intravenous infusion”, the “Median duration of response” value in data set [1] (follow-up 7.5 months) is on record as “not reached”. Further, in data set [1] (median follow-up 7.5 months), the Overall response rate is 37%.
Turning to “DARA MD: mix-and-deliver formulation of daratumumab (20 mg/mL) and rHuPH20 given subcutaneously by syringe pump”, the ORR with patients with RRMM [2] was 42.2%. In the data set on patients with RRMM [3], the “Serious TEAEs in SOC Infections and infestations” value came to 17.8%; the “TEAEs in SOC Infections and infestations” value is 71.1%. Also, in the data set with patients with RRMM [4], the “Anemia, TEAE of Grade >3” value was 15.6%; the “Serious TEAEs in SOC General disorders and administration site conditions” value was 6.7%; the “TEAEs in SOC General disorders and administration site conditions” value stood at 71.1%.
Turning to “daratumumab: human IgG1/κ anti-CD38 monoclonal antibody; heavy chain SEQ ID NO:12, light chain SEQ ID NO:13”, the “Patients positive for anti-daratumumab antibodies” value with patients with RRMM [5] (daratumumab immunogenicity-evaluable n=41) is listed as “no patient tested positive; also recorded: no patients evaluable for daratumumab immunogenicity were positive”.

B1: rHuPH20: recombinant hyaluronidase having the amino acid sequence of SEQ ID NO: 22 (protein, listed as Homo sapiens)
chain: LNFRAPPVIPNVPFLWAWNAPSEFCLGKFDEPLDMSLFSFIGSPRINATGQGVTIFYVDRLGYYPYIDSITGVTVNGGIPQKISLQDHLDKAKKDITFYMPVDNLGMAVIDWEEWRPTWARNWKPKDVYKNRSIELVQQQNVQLSLTEATEKAKQEFEKAGKDFLVETIKLGKLLRPNHLWGYYLFPDCYNHHYKKPGYNGSCFNVEIKRNDDLSWLWNESTALYPSIYLNTQQSPVAATLYVRNRVREAIRVSKIPDAKSPLPVFAYTRIVFTDQVLKFLSQDELVYTFGETVALGASGIVIWGTLSIMRSMKSCLLLDNYMETILNPYIINVTLAAKMCSQVLCQEQGVCIRKNWNSSDYLHLNPDNFAIQLEKGGKFTVRGKPTLEDLEQFSEKFYCSCYSTLSCKEKADVKDTDAVDVCIADGVCIDAFLKPPMETEEPQIFY
For B1, the “Patients positive for treatment-emergent anti-rHuPH20 antibodies” value is reported as 1 (9.1%) n (%) in the data set with patients with RRMM [5] (1-week taper), 3 (20.0%) n (%) with patients with RRMM [5] (2-week taper) and 6 (40.0%) n (%) in the data set with patients with RRMM [5] (3-week taper). Further, the “Neutralizing anti-rHuPH20 antibodies” value with patients with RRMM [5] (all cohorts) was “None of the anti-rHuPH20 antibodies were neutralizing antibodies”.
